Laboratory results published in the RNAGym collection of RNA variant scans (doi:10.1021/acssynbio.7b00057).

B1: Pistol ribozyme (parent)
chain: GGGUCGUUGUUCCAUAAUCGCGUGGAUAUGGCACGCAAGUUUCUACCGGGCACCGUAAAUGUCCGACUGGAGCCGUUCGGGCGGCUAUAAACAGACCUCAGGCCCGAAGCGUGGCGGCACCUGCCGCCGGUGGUAAAAAAGAUCGGAAGAGCACACGUCU

Variants of: B1
Assay: aptazyme ON/OFF ratio, guanine; higher = stronger switching; co-transcriptional cleavage with and without guanine

Point of comparison: GGGUCGUUGUGGUAUAAUCGCGUGGAUAUGGCACGCAAGUUUCUACCGGGCACCGUAAAUGUCCGACUGGAGCCGUUCGGGCGGCUAUAAACAGACCUCAGGCCCGAAGCGUGGCGGCACCUGCCGCCGGUGGUAAAAAAGAUCGGAAGAGCACACGUCU [U11G C12G C13U], “aptazyme ON/OFF ratio” value 1.32. Against it:
- GGGUCGUUGUUUCAUAAUCGCGUGGAUAUGGCACGCAAGUUUCUACCGGGCACCGUAAAUGUCCGACUGGAGCCGUUCGGGCGGCUAUAAACAGACCUCAGGCCCGAAGCGUGGCGGCACCUGCCGCCGGUGGUAAAAAAGAUCGGAAGAGCACACGUCU [C12U] — higher, 1.91
- GGGUCGUUGUUGCAUAAUCGCGUGGAUAUGGCACGCAAGUUUCUACCGGGCACCGUAAAUGUCCGACUGGAGCCGUUCGGGCGGCUAUAAACAGACCUCAGGCCCGAAGCGUGGCGGCACCUGCCGCCGGUGGUAAAAAAGAUCGGAAGAGCACACGUCU [C12G] — higher, 1.45
- GGGUCGUUGUUACAUAAUCGCGUGGAUAUGGCACGCAAGUUUCUACCGGGCACCGUAAAUGUCCGACUGGAGCCGUUCGGGCGGCUAUAAACAGACCUCAGGCCCGAAGCGUGGCGGCACCUGCCGCCGGUGGUAAAAAAGAUCGGAAGAGCACACGUCU [C12A] — higher, 1.76
- GGGUCGUUGUGUGAUAAUCGCGUGGAUAUGGCACGCAAGUUUCUACCGGGCACCGUAAAUGUCCGACUGGAGCCGUUCGGGCGGCUAUAAACAGACCUCAGGCCCGAAGCGUGGCGGCACCUGCCGCCGGUGGUAAAAAAGAUCGGAAGAGCACACGUCU [U11G C12U C13G] — lower, 1.04
- GGGUCGUUGUGUAAUAAUCGCGUGGAUAUGGCACGCAAGUUUCUACCGGGCACCGUAAAUGUCCGACUGGAGCCGUUCGGGCGGCUAUAAACAGACCUCAGGCCCGAAGCGUGGCGGCACCUGCCGCCGGUGGUAAAAAAGAUCGGAAGAGCACACGUCU [U11G C12U C13A] — lower, 1.1
- GGGUCGUUGUGUUAUAAUCGCGUGGAUAUGGCACGCAAGUUUCUACCGGGCACCGUAAAUGUCCGACUGGAGCCGUUCGGGCGGCUAUAAACAGACCUCAGGCCCGAAGCGUGGCGGCACCUGCCGCCGGUGGUAAAAAAGAUCGGAAGAGCACACGUCU [U11G C12U C13U] — lower, 1.11
- GGGUCGUUGUGGCAUAAUCGCGUGGAUAUGGCACGCAAGUUUCUACCGGGCACCGUAAAUGUCCGACUGGAGCCGUUCGGGCGGCUAUAAACAGACCUCAGGCCCGAAGCGUGGCGGCACCUGCCGCCGGUGGUAAAAAAGAUCGGAAGAGCACACGUCU [U11G C12G] — higher, 1.34
- GGGUCGUUGUGUCAUAAUCGCGUGGAUAUGGCACGCAAGUUUCUACCGGGCACCGUAAAUGUCCGACUGGAGCCGUUCGGGCGGCUAUAAACAGACCUCAGGCCCGAAGCGUGGCGGCACCUGCCGCCGGUGGUAAAAAAGAUCGGAAGAGCACACGUCU [U11G C12U] — lower, 1.29
- GGGUCGUUGUUAUAUAAUCGCGUGGAUAUGGCACGCAAGUUUCUACCGGGCACCGUAAAUGUCCGACUGGAGCCGUUCGGGCGGCUAUAAACAGACCUCAGGCCCGAAGCGUGGCGGCACCUGCCGCCGGUGGUAAAAAAGAUCGGAAGAGCACACGUCU [C12A C13U] — higher, 1.9
- GGGUCGUUGUUAAAUAAUCGCGUGGAUAUGGCACGCAAGUUUCUACCGGGCACCGUAAAUGUCCGACUGGAGCCGUUCGGGCGGCUAUAAACAGACCUCAGGCCCGAAGCGUGGCGGCACCUGCCGCCGGUGGUAAAAAAGAUCGGAAGAGCACACGUCU [C12A C13A] — higher, 1.34
- GGGUCGUUGUUAGAUAAUCGCGUGGAUAUGGCACGCAAGUUUCUACCGGGCACCGUAAAUGUCCGACUGGAGCCGUUCGGGCGGCUAUAAACAGACCUCAGGCCCGAAGCGUGGCGGCACCUGCCGCCGGUGGUAAAAAAGAUCGGAAGAGCACACGUCU [C12A C13G] — lower, 1.27
- GGGUCGUUGUUUUAUAAUCGCGUGGAUAUGGCACGCAAGUUUCUACCGGGCACCGUAAAUGUCCGACUGGAGCCGUUCGGGCGGCUAUAAACAGACCUCAGGCCCGAAGCGUGGCGGCACCUGCCGCCGGUGGUAAAAAAGAUCGGAAGAGCACACGUCU [C12U C13U] — lower, 1.26
- GGGUCGUUGUUUGAUAAUCGCGUGGAUAUGGCACGCAAGUUUCUACCGGGCACCGUAAAUGUCCGACUGGAGCCGUUCGGGCGGCUAUAAACAGACCUCAGGCCCGAAGCGUGGCGGCACCUGCCGCCGGUGGUAAAAAAGAUCGGAAGAGCACACGUCU [C12U C13G] — lower, 1.29
- GGGUCGUUGUUUAAUAAUCGCGUGGAUAUGGCACGCAAGUUUCUACCGGGCACCGUAAAUGUCCGACUGGAGCCGUUCGGGCGGCUAUAAACAGACCUCAGGCCCGAAGCGUGGCGGCACCUGCCGCCGGUGGUAAAAAAGAUCGGAAGAGCACACGUCU [C12U C13A] — lower, 1.28
- GGGUCGUUGUGCAAUAAUCGCGUGGAUAUGGCACGCAAGUUUCUACCGGGCACCGUAAAUGUCCGACUGGAGCCGUUCGGGCGGCUAUAAACAGACCUCAGGCCCGAAGCGUGGCGGCACCUGCCGCCGGUGGUAAAAAAGAUCGGAAGAGCACACGUCU [U11G C13A] — lower, 1.05
- GGGUCGUUGUGCUAUAAUCGCGUGGAUAUGGCACGCAAGUUUCUACCGGGCACCGUAAAUGUCCGACUGGAGCCGUUCGGGCGGCUAUAAACAGACCUCAGGCCCGAAGCGUGGCGGCACCUGCCGCCGGUGGUAAAAAAGAUCGGAAGAGCACACGUCU [U11G C13U] — lower, 1.06
- GGGUCGUUGUGCGAUAAUCGCGUGGAUAUGGCACGCAAGUUUCUACCGGGCACCGUAAAUGUCCGACUGGAGCCGUUCGGGCGGCUAUAAACAGACCUCAGGCCCGAAGCGUGGCGGCACCUGCCGCCGGUGGUAAAAAAGAUCGGAAGAGCACACGUCU [U11G C13G] — lower, 1.03
- GGGUCGUUGUUGAAUAAUCGCGUGGAUAUGGCACGCAAGUUUCUACCGGGCACCGUAAAUGUCCGACUGGAGCCGUUCGGGCGGCUAUAAACAGACCUCAGGCCCGAAGCGUGGCGGCACCUGCCGCCGGUGGUAAAAAAGAUCGGAAGAGCACACGUCU [C12G C13A] — higher, 1.37
- GGGUCGUUGUUGGAUAAUCGCGUGGAUAUGGCACGCAAGUUUCUACCGGGCACCGUAAAUGUCCGACUGGAGCCGUUCGGGCGGCUAUAAACAGACCUCAGGCCCGAAGCGUGGCGGCACCUGCCGCCGGUGGUAAAAAAGAUCGGAAGAGCACACGUCU [C12G C13G] — higher, 1.33
- GGGUCGUUGUUGUAUAAUCGCGUGGAUAUGGCACGCAAGUUUCUACCGGGCACCGUAAAUGUCCGACUGGAGCCGUUCGGGCGGCUAUAAACAGACCUCAGGCCCGAAGCGUGGCGGCACCUGCCGCCGGUGGUAAAAAAGAUCGGAAGAGCACACGUCU [C12G C13U] — higher, 1.36
- GGGUCGUUGUGGGAUAAUCGCGUGGAUAUGGCACGCAAGUUUCUACCGGGCACCGUAAAUGUCCGACUGGAGCCGUUCGGGCGGCUAUAAACAGACCUCAGGCCCGAAGCGUGGCGGCACCUGCCGCCGGUGGUAAAAAAGAUCGGAAGAGCACACGUCU [U11G C12G C13G] — lower, 1.27
- GGGUCGUUGUGGAAUAAUCGCGUGGAUAUGGCACGCAAGUUUCUACCGGGCACCGUAAAUGUCCGACUGGAGCCGUUCGGGCGGCUAUAAACAGACCUCAGGCCCGAAGCGUGGCGGCACCUGCCGCCGGUGGUAAAAAAGAUCGGAAGAGCACACGUCU [U11G C12G C13A] — lower, 1.2
- GGGUCGUUGUUCGAUAAUCGCGUGGAUAUGGCACGCAAGUUUCUACCGGGCACCGUAAAUGUCCGACUGGAGCCGUUCGGGCGGCUAUAAACAGACCUCAGGCCCGAAGCGUGGCGGCACCUGCCGCCGGUGGUAAAAAAGAUCGGAAGAGCACACGUCU [C13G] — lower, 1.13
- GGGUCGUUGUUCAAUAAUCGCGUGGAUAUGGCACGCAAGUUUCUACCGGGCACCGUAAAUGUCCGACUGGAGCCGUUCGGGCGGCUAUAAACAGACCUCAGGCCCGAAGCGUGGCGGCACCUGCCGCCGGUGGUAAAAAAGAUCGGAAGAGCACACGUCU [C13A] — higher, 1.36
- GGGUCGUUGUUCUAUAAUCGCGUGGAUAUGGCACGCAAGUUUCUACCGGGCACCGUAAAUGUCCGACUGGAGCCGUUCGGGCGGCUAUAAACAGACCUCAGGCCCGAAGCGUGGCGGCACCUGCCGCCGGUGGUAAAAAAGAUCGGAAGAGCACACGUCU [C13U] — higher, 1.38
